Source: the supplement of paper PMC9170038

System: K4 kissing-loop RNA reporter
Test: apparent KD of K4 kissing-loop reporter; higher = weaker reporter binding
Settings: Eterna round: R107
Protocol: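 RNA-MaP round R107: designed RNA switches with theophylline, tryptophan, arginine or FMN aptamers are transcribed on-chip within common flanks. They are titrated with a labelled K4 kissing-loop RNA reporter in RNA-MaP buffer (100 mM Tris pH 7.5, 80 mM KCl, 4 mM MgCl2), without ligand or with the indicated ligand. Median apparent KD per design.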

[1] = input ligand: theophylline 20 uM
[2] = input ligand: tryptophan 2.4 mM
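Note: bound reporter read as fluorescence of individual clusters on recovered sequencing chips by microscopy, with normalized cluster intensities fitted with a binding model.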

Sequence	apparent KD of K4 kissing-loop reporter (input ligand: FMN 200 uM)	apparent KD of K4 kissing-loop reporter (input ligand: arginine 13.2 mM)	apparent KD of K4 kissing-loop reporter (input ligand: none)	apparent KD of K4 kissing-loop reporter [1]	apparent KD of K4 kissing-loop reporter [2]
GGAUCCUAGGCGGCCGCCACUCCAAUUGGCCGAAAGGCCUGAUACCGAGUGAUGUUCGGUUGGAGGAGGACCGGGCCUAGGAUCC [#2 Exclusion - Tryptophan B Attempt #2 (HarryS)]	144 nM	132 nM	118 nM	165 nM	104 nM
GGAUUCGGCGCGGCCGCCACUUCCGGUGGCUGGUGUCAUGGUGCGCGUGAGUGAUGUUUAUGUGGGAGGACCGGGCGUUGAGUCC [whbob_Ex_Tryp_B_w45]	577 nM	322 nM	767 nM	441 nM	305 nM
GGCACGUUCCCUUGAUCAGUGAUGUUGUUUCGAGGACCGGUACGGCCGCCACUCGCUCGGCGUUCGCCCAGGCCCGGAAAACUGC [theeternabot_exclusion_KL_Trp_A_13]	241 nM	207 nM	224 nM	217 nM	225 nM
GGCCGCAAGGCGAGCGCUCCCACUCCGGAAGGAGCGCCCGCAAGGGCAGGUAGGUCGCCGGAGUGAUGUUCCGGUGGAGGGCUCG [#2 Exclusion - Arginine A Attempt #16 (Inspired by Omei)]	398 nM	271 nM	369 nM	127 nM	338 nM
GGCCGGAAGGCGAGCGCUCCCACUCCGGAAGGAGCGCCCGUAAGGGCAGGUAGGUCGCCGGAGUGAUGUUCCGGUGGAGGGCUCG [#2 Exclusion - Arginine A Attempt #21 (Inspired by Omei)]	165 nM	106 nM	180 nM	302 nM	186 nM
GGCGGCUGCGCGCAAGCGCAGCCGGCCGAUACCAGCGCGACGGCGCGCCCUUGGCAGCGGCGCCGAGUGAUGUUCGGCCUGCCGU [#2 Same State - Theophylline A Attempt #22 (HarryS)]	113 nM	98.1 nM	129 nM	149 nM	141 nM
GGCGUCAAACCAGAACUAGUGAUGUUGGUUCGAGGACCGGUACGGCCGCCACUCGAUCUCUUGGUCCAUCGCGGAAGGGCAGCGG [theeternabot_exclusion_KL_Trp_A_29]	511 nM	369 nM	532 nM	414 nM	622 nM
GGGAGAAGUGCGGCCGCCACUGAGAAAGAAGAAGAAUAUAGUGAUGUUAUAUAGGAAAGGAAGAACAGGACCGGGCAUAAGAGGG [SSTryptB.A]	104 nM	148 nM	126 nM	131 nM	99.1 nM
GGGAGGAGUGGUGUUGAUUAGGGAGCGGAAGGAGCGCCGAAGAAGGCAGGUAGGUCGCCGGAAUAUAGUGAUGUUAUAUAGAGGG [ExArg.G]	304 nM	211 nM	270 nM	168 nM	201 nM
GGGAGGAUUAAAUAAAUAAAUAAGAUAGAUACCAGUUGAGAGUAAGGCCCUUGGCAGCUAAAACGAGUGAUGUUCGAGUAAAUCC [Default title]	81.6 nM	88.8 nM	63 nM	147 nM	62.4 nM
GGGAGUAGUGCGGCCGCCACUGAGAAAGAAGAAGAAUAUAGUGAUGUUAUAUAGGAAUAAAAGAACAGGACCGGGCAUUAGAUUU [SSTRyptB.T]	263 nM	239 nM	255 nM	196 nM	167 nM
GGGCUGGUGCUAGGAUAUGCGAUGAAUGCUCAGGAAACCUUGAGUCCGCAGUGAUGUUGCGGCACCGCAGAAGGAGCUUAGGCUC [Esbequ]	146 nM	263 nM	222 nM	292 nM	172 nM
GGGUCUGCGCGAAGGAGCGCCCUGACAGGUUGCUGCCGUGGGCAGUGAUGUUGCUCAGUCCGGCAGGUAGGUCGCGUGCAGACCC	135 nM	161 nM	176 nM	169 nM	160 nM
GGUAGCAUGGCGGCCGCCACUAAGAGAGUGAUGUUCUCUUAGUUUUUUGAUAUAUUAUCAAUUCUUAGGACCGGGCCAUGCUACC	121 nM	79.9 nM	94.7 nM	98.9 nM	100 nM
GGUAGCAUGGCGGCCGCCACUACAAGUAGUGACCCAAGUGAUGUUUGGAAGCGGGUCCUAAUUGGUAGGACCGGGCCAUGCUACC	509 nM	502 nM	496 nM	401 nM	566 nM
GGUAGCAUGGCGGCCGCCACUUUUUUAGAUACCUACACAGAAAGCAGUGAUGUUGCUUGGUGGUAAAGGACCGGGCCAUGCUACC	149 nM	131 nM	136 nM	137 nM	105 nM
GGUAUCUAUACAGAUACCAGUCGUACAGCACCAUUACAGGUUAGUGAUGUUAACCUGUACGACCCUUGGCAGCUGUAUUAUAAUA [#15 K4 Theophylline B Exclusion]	94.3 nM	88.7 nM	86.8 nM	91.4 nM	85.2 nM
GGUCGAGUGAUGUUCGAUGUAGUGCAUUCAGAGGAUAUAGGAUUGGCUAGAAGGCUGAAACCUUCUUCGAGUGAUGUUCGAGGAU [Same State FMN A GF5]	130 nM	83.8 nM	112 nM	90.1 nM	77.8 nM
GGUGACGACCAGAGGUGAUGUAUAGUAUCGCGAGGACCGGUACGGCCGCCACUCGUGAAGAGAAAGGAGUGAUGUUCCGUAAUGG [Kazoo C9]	241 nM	217 nM	289 nM	289 nM	108 nM
GGUGGCGUUGUUGACAGCUCACCACGAGCCAAGGAUAUAGUUUCUUCUAGAAGGUGGAAUGACAAGUGAUGUUUGUACGACUGCU [theeternabot_exclusion_KL_FMN_A_28]	254 nM	233 nM	254 nM	294 nM	185 nM
GGUGGCUUACAAAGCUCAGUGAUGUUGAGCCGAGGACCGGUACGGCCGCCACUCGUUUGCCAUUCACUACAGUUACAAGCACUAG [theeternabot_exclusion_KL_Trp_A_2]	269 nM	217 nM	279 nM	282 nM	292 nM
